How the values were obtained:
Format in all cases: cell-based, human
[1] = tested on: T cell lines obtained from HDM allergic individuals and non-allergics; assay: In vitro T cell proliferation test in T cell lines (Example 3); details: 0.5 or 2 ug/ml, 72 h; for % responders of in-vitro T cell proliferation test, Allergic: T cell lines from HDM allergic individuals (n=30); for % responders of in-vitro T cell proliferation test, Non-allergics: T cell lines from non-allergics (n=8)
Summary of the method: (§1)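 Freshly isolated PBMC (5×10^6/ml) from mite-allergic patients or non-allergics cultured 5 days with test protein up to 10 ug/ml; IFN-gamma, IL-9, IL-10, IL-17, IL-31 in supernatants by multiplex immunoassay. T cell lines, raised 3 weeks on HDM extract, tested at 0.5 or 2 ug/ml protein in 72 h proliferation assay.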

[2] = tested on: PBMC cells obtained from mite allergic patients and non-allergics; assay: Ex vivo stimulation of PBMC: cytokine production (IFN-gamma, IL-9, IL-10, IL-17, IL-31)
Summary of the method: as §1

[3] = tested on: basophils in whole blood from HDM allergic donors; assay: Basophil Activation Test (BAT); details: blood from HDM allergic individuals (n=14)
Summary of the method: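 Basophil activation was read by flow cytometry as increased surface activation markers. The stimulus was a 1 h exposure of blood from 14 HDM-allergic donors to test proteins or major mite allergens at graded concentrations (e.g. 1–1000 ng/ml).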

B1: Derf2: major house dust mite allergen, group 2, Dermatophagoides farinae; control (protein, UniProt Q00855 18-146, looked up)
Mite group 2 allergen Der f 2: DQVDVKDCANNEIKKVMVDGCHGSDPCIIHRGKPFTLEALFDANQNTKTAKIEIKASLDGLEIDVPGIDTNACHFMKCPLVKGQQYDIKYTWNVPKIAPKSENVVVTVKLIGDNGVLACAIATHGKIRD
With B1 the “% responders of in-vitro T cell proliferation test, Allergic” value [1] was 67%, the “% responders of in-vitro T cell proliferation test, Non-allergics” value (shortened to “% responders … Non-allergics”) [1] was 14% and the “% HDM allergic individuals with cytokine production in ex-vivo T cell assay IL-5” value [2] was 63%. For the same molecule, the “% HDM allergic individuals with cytokine production in ex-vivo T cell assay IL-9” value [2] was 50%, the “% HDM allergic individuals with cytokine production in ex-vivo T cell assay IL-10” value [2] was 81% and the “% HDM allergic individuals with cytokine production in ex-vivo T cell assay IL-13” value [2] was 69%. For the same molecule, the “% HDM allergic individuals with cytokine production in ex-vivo T cell assay IL-17” value [2] was 13%, the “% HDM allergic individuals with cytokine production in ex-vivo T cell assay IL-31” value [2] was 6% and the “% HDM allergic individuals with cytokine production in ex-vivo T cell assay INF-g” value [2] was 6%. For the same molecule, the “% non-allergic individuals with cytokine production in ex-vivo T cell assay IL-5” value [2] was 0%, the “% non-allergic individuals with cytokine production in ex-vivo T cell assay IL-9” value [2] was 0% and the “% non-allergic individuals with cytokine production in ex-vivo T cell assay IL-10” value [2] was 33%. The “% non-allergic individuals with cytokine production in ex-vivo T cell assay IL-13” value [2] was 0%, the “% non-allergic individuals with cytokine production in ex-vivo T cell assay IL-17” value [2] was 67% and the “% non-allergic individuals with cytokine production in ex-vivo T cell assay IL-31” value [2] was 0%. For the same molecule, the “% non-allergic individuals with cytokine production in ex-vivo T cell assay INF-g” value [2] was 17%, the “# of individuals of 14 with positive BAT test” value ([3]; 1 ng/ml) was 13 and the “# of individuals of 14 with positive BAT test” value ([3]; 10 ng/ml) was 13. For the same molecule, the “# of individuals of 14 with positive BAT test” value ([3]; 100 ng/ml) was 13 and the “# of individuals of 14 with positive BAT test” value ([3]; 1000 ng/ml) was 13.

B2: A025: house dust mite protein; SEQ ID NO: 17 (Der f), 18 (Der p) (protein)
chain: QSLFVDYNDYSCGSSQNETNELIQEFKIFKKNINGNENFKKINDFIEKARLFRDNAAKQMLEIDQQLLTLNVIQISQRIKLENNKIQCEKLTKFSELLSMQLLAYEVGMFEFAEEIDPNIDFDRKMKNFLDETSRLFNLAEFEKLEKKFRNATSIEKLKNYIDGELVALNDYINEFLKDIIMSEFTVQSRYYLNFSIEDQVQIDSTLMTFSALKILLNDLKDYLEHLDN
For B2, the “% responders of in-vitro T cell proliferation test, Allergic” value [1] was 0%, the “% responders … Non-allergics” value [1] was 0% and the “% HDM allergic individuals with cytokine production in ex-vivo T cell assay IL-5” value [2] was 13%. The “% HDM allergic individuals with cytokine production in ex-vivo T cell assay IL-9” value [2] was 6%, the “% HDM allergic individuals with cytokine production in ex-vivo T cell assay IL-10” value [2] was 6% and the “% HDM allergic individuals with cytokine production in ex-vivo T cell assay IL-13” value [2] was 13%. The “% HDM allergic individuals with cytokine production in ex-vivo T cell assay IL-17” value [2] was 0%, the “% HDM allergic individuals with cytokine production in ex-vivo T cell assay IL-31” value [2] was 0% and the “% HDM allergic individuals with cytokine production in ex-vivo T cell assay INF-g” value [2] was 0%. The “% non-allergic individuals with cytokine production in ex-vivo T cell assay IL-5” value [2] was 0%, the “% non-allergic individuals with cytokine production in ex-vivo T cell assay IL-9” value [2] was 0% and the “% non-allergic individuals with cytokine production in ex-vivo T cell assay IL-10” value [2] was 0%. The “% non-allergic individuals with cytokine production in ex-vivo T cell assay IL-13” value [2] was 0%, the “% non-allergic individuals with cytokine production in ex-vivo T cell assay IL-17” value [2] was 0% and the “% non-allergic individuals with cytokine production in ex-vivo T cell assay IL-31” value [2] was 0%. The “% non-allergic individuals with cytokine production in ex-vivo T cell assay INF-g” value [2] was 0%, the “# of individuals of 14 with positive BAT test” value ([3]; 1 ng/ml) was 1 and the “# of individuals of 14 with positive BAT test” value ([3]; 10 ng/ml) was 1. For the same molecule, the “# of individuals of 14 with positive BAT test” value ([3]; 100 ng/ml) was 1 and the “# of individuals of 14 with positive BAT test” value ([3]; 1000 ng/ml) was 5.

B3: Derf1: major house dust mite allergen, group 1, Dermatophagoides farinae; control (protein, UniProt P16311 99-321, looked up)
Peptidase 1: TSACRINSVNVPSELDLRSLRTVTPIRMQGGCGSCWAFSGVAATESAYLAYRNTSLDLSEQELVDCASQHGCHGDTIPRGIEYIQQNGVVEERSYPYVAREQRCRRPNSQHYGISNYCQIYPPDVKQIREALTQTHTAIAVIIGIKDLRAFQHYDGRTIIQHDNGYQPNYHAVNIVGYGSTQGDDYWIVRNSWDTTWGDSGYGYFQAGNNLMMIEQYPYVVIM
B3 was tested, and the “% responders of in-vitro T cell proliferation test, Allergic” value [1] was 70%, the “% responders … Non-allergics” value [1] was 0% and the “% HDM allergic individuals with cytokine production in ex-vivo T cell assay IL-5” value [2] was 75%. For the same molecule, the “% HDM allergic individuals with cytokine production in ex-vivo T cell assay IL-9” value [2] was 19%, the “% HDM allergic individuals with cytokine production in ex-vivo T cell assay IL-10” value [2] was 50% and the “% HDM allergic individuals with cytokine production in ex-vivo T cell assay IL-13” value [2] was 56%. The “% HDM allergic individuals with cytokine production in ex-vivo T cell assay IL-17” value [2] was 6%, the “% HDM allergic individuals with cytokine production in ex-vivo T cell assay IL-31” value [2] was 0% and the “% HDM allergic individuals with cytokine production in ex-vivo T cell assay INF-g” value [2] was 0%. The “% non-allergic individuals with cytokine production in ex-vivo T cell assay IL-5” value [2] was 0%, the “% non-allergic individuals with cytokine production in ex-vivo T cell assay IL-9” value [2] was 0% and the “% non-allergic individuals with cytokine production in ex-vivo T cell assay IL-10” value [2] was 33%. The “% non-allergic individuals with cytokine production in ex-vivo T cell assay IL-13” value [2] was 0%, the “% non-allergic individuals with cytokine production in ex-vivo T cell assay IL-17” value [2] was 17% and the “% non-allergic individuals with cytokine production in ex-vivo T cell assay IL-31” value [2] was 0%. For the same molecule, the “% non-allergic individuals with cytokine production in ex-vivo T cell assay INF-g” value [2] was 0%, the “# of individuals of 14 with positive BAT test” value ([3]; 1 ng/ml) was 10 and the “# of individuals of 14 with positive BAT test” value ([3]; 10 ng/ml) was 10. For the same molecule, the “# of individuals of 14 with positive BAT test” value ([3]; 100 ng/ml) was 10 and the “# of individuals of 14 with positive BAT test” value ([3]; 1000 ng/ml) was 10.

B4: A024: house dust mite protein; SEQ ID NO: 11 (Der f), 12 (Der p), 318 (Blo t) (protein)
chain: MSISAHGGGLVNGIAGMENKFTVFTSGKPVSGLTVAFEGPTKPEINFNSTKDGSVDVGYIPKAGGQYKIHIKYEGKEIVGSPFKCNISGDESTHRKLTEKVKVGGPNISTGKVNQDNQLTIDCKEAGITGGISFAMEGPAKVEVSFRNNNDGTITVIYKPPTPGDYKLHLKFNDIHLPGSPYPIVVSA
With B4 the “% responders of in-vitro T cell proliferation test, Allergic” value [1] was 21%, the “% responders … Non-allergics” value [1] was 0% and the “% HDM allergic individuals with cytokine production in ex-vivo T cell assay IL-5” value [2] was 13%. The “% HDM allergic individuals with cytokine production in ex-vivo T cell assay IL-9” value [2] was 6%, the “% HDM allergic individuals with cytokine production in ex-vivo T cell assay IL-10” value [2] was 25% and the “% HDM allergic individuals with cytokine production in ex-vivo T cell assay IL-13” value [2] was 6%. For the same molecule, the “% HDM allergic individuals with cytokine production in ex-vivo T cell assay IL-17” value [2] was 6%, the “% HDM allergic individuals with cytokine production in ex-vivo T cell assay IL-31” value [2] was 0% and the “% HDM allergic individuals with cytokine production in ex-vivo T cell assay INF-g” value [2] was 0%. The “% non-allergic individuals with cytokine production in ex-vivo T cell assay IL-5” value [2] was 0%, the “% non-allergic individuals with cytokine production in ex-vivo T cell assay IL-9” value [2] was 0% and the “% non-allergic individuals with cytokine production in ex-vivo T cell assay IL-10” value [2] was 17%. The “% non-allergic individuals with cytokine production in ex-vivo T cell assay IL-13” value [2] was 0%, the “% non-allergic individuals with cytokine production in ex-vivo T cell assay IL-17” value [2] was 0% and the “% non-allergic individuals with cytokine production in ex-vivo T cell assay IL-31” value [2] was 0%. For the same molecule, the “% non-allergic individuals with cytokine production in ex-vivo T cell assay INF-g” value [2] was 0%, the “# of individuals of 14 with positive BAT test” value ([3]; 1 ng/ml) was 2 and the “# of individuals of 14 with positive BAT test” value ([3]; 10 ng/ml) was 2. For the same molecule, the “# of individuals of 14 with positive BAT test” value ([3]; 100 ng/ml) was 3 and the “# of individuals of 14 with positive BAT test” value ([3]; 1000 ng/ml) was 3.

Source: patent US10556936B2, “Immunogenic proteins and fragments thereof from allergenic mites” (ALK-ABELLÓ A/S, priority 2016, dated 2020)
